Experimental findings from patent US12312417B2, “Binding proteins 1” (Nucleus Therapeutics Pty. Ltd., priority 2017, dated 2025) are described below.

In series [1] the test system is GBM cells extracted from human GBM tumours. Description: Orthotopic mouse model of GBM. It is filed as in vivo. The method, then:
An orthotopic mouse model of GBM was generated by intracranial injection of GBM cells extracted from human GBM tumours. Once the tumours developed in the brain, mice were treated by tail vein injection of control or di-scFv variant 13 (SEQ ID NO: 41), and effect of di-scFv on reduction of tumour volume was evaluated by extraction of tumours. […] To confirm this, tumours and normal brain were probed for di-scFv by protein L immunostaining.
Mean survival data reflected these trends (83 days±3.2 days for di-scFv treated mice, 71 days±1.2 days for controls) (FIG. 16E). Statistical analysis indicated a significant difference between the two groups, with P value=0.004.

The subject of series [2] is DLD-1 cells. Description: Nuclear penetration by protein L immunostain of fixed cells. It is filed as cell-based. The method, then:
(§1) DLD-1 and MCF-7 cells were treated with control or di-scFv (SEQ ID NO: 41), and nuclear penetration was evaluated by protein L immunostain of fixed cells.

The subject of series [3] is MCF-7 cells. Described as above. It counts as cell-based. The method, then: as §1
The test system of series [4] is PTEN-deficient U87 human glioma cells. Description: Cell viability by Trypan blue exclusion assay. It counts as cell-based. The following applies: 7 days after treatment; relative to control treated cells. The method, then:
Cell viability of PTEN-deficient U87 human glioma cells was also assessed following treatment with control media or media containing Variants 10, 13, 15, or 16. Cell viability was determined 7 days after treatment using Trypan blue exclusion assay and by direct visualization of cell morphology by light microscopy.

The test system of series [5] is human GBM cancer stem cells (CSCs) grown as tumour spheres. Description: GBM tumour sphere penetration and sphere volume. It counts as cell-based. The method, then:
GBM cancer stem cells extracted from primary human GBM tumours from patients and grown as spheres were treated with control or di-scFv (SEQ ID NO: 41), and the effect of dose and incubation time on reduction of sphere volume was evaluated by confocal micrographs of DX1-rhodamine cellular penetration into GBM cells. Tumour spheres are recognised as a useful tool for pre-clinical studies as they retain tumour heterogeneity and more closely represent the original patient tumour.

Series [6] relates to BRCA2-deficient DLD1 colon cancer cells. Description: Phospho-53BP1 foci accumulation. It counts as cell-based. The method, then:
(§2) A matched pair of BRCA2-proficient and deficient DLD1 colon cancer cells and PTEN-proficient and deficient U251 human glioma cells were treated with control media or media containing 10 μM di-scFv variant 13 (SEQ ID NO: 41), 5 nM olaparib, or combination treatment.

The test system is the same in series [7]. Description: Cell viability by Trypan blue exclusion assay. It is filed as cell-based. The following applies: 7 days later. The method, then:
(§3) Next, a matched pair of BRCA2-proficient and deficient DLD1 colon cancer cells was treated with control media or media containing Variants 10, 13, 15, or 16. Cell viability was determined 7 days later by Trypan blue exclusion assay and by direct visualization of cell morphology by light microscopy. […] Representative light microscope images shown the changes in morphology in the BRCA2-deficient cancer cells treated with the variants are shown in FIG. 10, Panel A. Quantitative analysis of the cell survival by Trypan blue exclusion assay is shown in FIG. 10, Panel B.

In series [8] the test system is BRCA2-proficient DLD1 colon cancer cells. Description: Cell viability by Trypan blue exclusion assay. It is filed as cell-based. Particulars: 7 days later. The method, then:
as §3

Series [9] deals with DLD1 colon cancer cells. Description: Alkaline phosphatase-based survey of nuclear penetration. It is filed as cell-based. Particulars: cells treated for one hour; right shift of histogram peak. The method, then:
DLD1 colon cancer cells were treated with control media or each of the indicated variants for one hour. Cells were then washed, fixed, blocked with 1% BSA-TBST, and then probed with protein L for one hour. Cells were then washed and incubated with an anti-protein L primary antibody for one hour. After another round of washing cells were incubated with an alkaline phosphatase-conjugated secondary antibody for one hour. Finally, cells were washed and signal was developed by addition of NBT/BCIP. Dark stain indicates location of the variants.
Raw integrated density values reflecting nuclear alkaline phosphatase staining in the DLD1 cells from the experiment in FIG. 3 were obtained by analysis using ImageJ Boxplots of distributions of values are presented for each variant in FIG. 4.
Histogram plots of cell counts versus nuclear staining intensity (represented as reciprocal intensity in arbitrary units) are shown in FIG. 5.

Series [10] relates to PTEN-deficient U251 human glioma cells. Description: Phospho-53BP1 foci accumulation (DNA damage). It is filed as cell-based. The following applies: for mean number of phospho-53BP1 foci per cell: PTEN-deficient U251. The method, then:
A matched pair of PTEN-proficient and deficient U251 human glioma cells were treated with control media or media containing Variant 10, 11, 13, 15, or 16 for twenty-four hours. Cells were then washed, fixed, blocked, and then probed with an anti-phospho-53BP1 antibody overnight. Cells were then washed and incubated with an AlexaFluor555-conjugated secondary antibody. Finally, cells were washed, counterstained with DAPI, and visualized under a fluorescence microscope. Images were saved and evaluated by CellProfiler to determine mean number of phospho-53BP1 foci per cell.
as §2

Series [11] deals with Primary human glioblastoma (GBM) cancer cells. Description: Live cells by trypan blue staining in primary GBM explants. It is filed as cell-based. Particulars: seven patient explants; percentage of live cells by trypan blue. The method, then: Primary human glioblastoma (GBM) cancer cells extracted from primary human GBM tumours from patients were treated with control or di-scFv (SEQ ID NO: 41), and percentage of live cells was evaluated by trypan blue staining.

Series [12] has as its system HDR-proficient DLD1 cells. Description: Cell death in HDR-proficient cells, di-scFv with PARP inhibitor. The following applies: 5 nM olaparib, 10 μM di-scFv, or both. It is filed as cell-based. The method, then:
Homology-directed repair (HDR) deficient BRCA2-DLD1 cells and PTEN-U251 cells were treated with control, 5 nM olaparib, 10 μM di-scFv, or 10 μM di-scFv+5 nM olaparib. Surviving fraction was determined by colony formation assay.
It was then determined whether the combination of di-scFv and olaparib is simply universally cytotoxic, regardless of DNA repair status. To evaluate this possibility, HDR-proficient DLD1 cells were treated with the above regimen to confirm selectivity of combination therapy to HDR-deficient malignant cells.

B1: Variant 13: cell penetrating anti-DNA humanized di-scFv, SEQ ID NO: 41 (protein)
scFv: DIQMTQSPSSLSASLGDRATITCRASKTVSTSSYSYMHWYQQKPGQPPKLLIKYASYLESGVPSRFSGSGSGTDFTLTISSLQPEDAATYYCQHSREFPWTFGGGTKVEIKRADAAPGGGGSGGGGSGGGGSEVQLVESGGGLVQPGGSLRLSCAASGFTFSNYGMHWVRQAPGKGLEWVSYISSGSSTIYYADSVKGRFTISRDNAKNSLYLQMNSLRAEDTAVYYCARRGLLLDYWGQGTTVTVSSASTKGPSVFPLAPLESSGSDIQMTQSPSSLSASLGDRATITCRASKTVSTSSYSYMHWYQQKPGQPPKLLIKYASYLESGVPSRFSGSGSGTDFTLTISSLQPEDAATYYCQHSREFPWTFGGGTKVEIKRADAAPGGGGSGGGGSGGGGSEVQLVESGGGLVQPGGSLRLSCAASGFTFSNYGMHWVRQAPGKGLEWVSYISSGSSTIYYADSVKGRFTISRDNAKNSLYLQMNSLRAEDTAVYYCARRGLLLDYWGQGTTVTVSS
modifications: Variant 13
The molecule B1 displayed a median survival in [1] (group of 7 mice) of 87 days. Besides, in series [1] (group of 7 mice, controls median 72 days), the “median survival longer than controls” value is “more than 20%”. Besides, the “crossing of the blood brain barrier” value in series [1] (mouse, in vivo) was “successfully crossed the blood brain barrier”. In addition, in series [1] (mouse, in vivo), the “di-scFv in GBM tumour cells by protein L immunostaining” value is on record as “detected in the nuclei of GBM tumour cells”. Moreover, in series [1] (mouse, in vivo), the “di-scFv in adjacent normal brain cells by protein L immunostaining” value is recorded as “not evident”. In addition, the “toxicity or weight loss” value in series [1] (survival study mice) is “No toxicity or weight loss”. Further, in series [1] (tail vein injection), the “TUNEL staining (incidence of apoptosis in tumours)” value is “increased incidence of apoptosis”. Moreover, the “glioblastoma tumour size smaller than in control mice” value in series [1] (tail vein injection, brain sections) is reported as “more than 40%”. Besides, the nuclear penetration result in [2] and in series [3] was “successfully penetrated” in each case. The cell viability entry in series [4] is “reductions in cell viability”. Further, the “cellular penetration in GBM spheres” value in series [5] (confocal micrographs, DX1-rhodamine) is “demonstrated cellular penetration in GBM spheres”. Moreover, the sphere volume result in series [5] (effect of dose and incubation time) is “reduced sphere volume in dose-dependent and time-dependant manner”. The “mean number of phospho-53BP1 foci per cell” value in [6] (BRCA2-deficient DLD1, 10 μM di-scFv, 5 nM olaparib) is “increased the number of phospho-53BP1 foci”; in [10] (10 μM di-scFv, 5 nM olaparib) it was “increased the number of phospho-53BP1 foci”; in series [10] (twenty-four hours, vs control media), “increased the number of foci”. Also, the “percentage of P53BP1-positive cells” value was “increased” in series [6] (HDR-deficient DLD1, 24 hour) and “increased” in series [10] (HDR-deficient U251, 24 hour). In addition, the entries for the “cell viability / toxicity” value in series [7] and in series [8] were “killed by the variants” and “not toxic”, respectively. The “nuclear penetration relative to the yeast prototype (histogram of cell counts versus nuclear staining intensity)” value in series [9] is “notable right shift and narrowing of distributions”. Moreover, the “glioblastoma tumour explants showing significant cancer cell death” value in series [11] is recorded as “Five of the seven”. Besides, the cell death result in series [12] was “No effect on cell death”.
